Source: US20200115416A1 (REGENTS OF THE UNIVERSITY OF MINNESOTA, published 2020)
Like-named read-outs stand apart in the source and are kept apart here. Square brackets hold non-standard residues; d marks the D form. hPhe = N[C@@H](CCc1ccccc1)C(=O)O; Nle = CCCC[C@H](N)C(=O)O; Dap = NC[C@H](N)C(=O)O

Experiments:
Assay in all cases: cell-based or functional assay
[1] = target: human melanocortin-4 receptor (human, UniProt P32245 1-332)
[2] = target: T1, mouse melanocortin-3 receptor (mouse, UniProt P33033 1-323)
[3] = target: T2, mouse melanocortin-1 receptor (mouse, UniProt Q01727 1-315)
[4] = target: T3, mouse melanocortin-5 receptor (mouse, UniProt P41149 1-325)
[5] = target: T3, mouse melanocortin-5 receptor; remark: listed apart in the source
[6] = target: T1, mouse melanocortin-3 receptor; remark: listed apart in the source
[7] = target: T4, mouse melanocortin-4 receptor (mouse, UniProt P56450 1-332)
[8] = target: T2, mouse melanocortin-1 receptor; remark: listed apart in the source
[9] = target: T3, mouse melanocortin-5 receptor; remark: listed apart in the source
[10] = target: T1, mouse melanocortin-3 receptor; remark: listed apart in the source
[11] = target: T2, mouse melanocortin-1 receptor; remark: listed apart in the source
[12] = target: T4, mouse melanocortin-4 receptor; remark: listed apart in the source

T2 sequence (Q01727 whole entry): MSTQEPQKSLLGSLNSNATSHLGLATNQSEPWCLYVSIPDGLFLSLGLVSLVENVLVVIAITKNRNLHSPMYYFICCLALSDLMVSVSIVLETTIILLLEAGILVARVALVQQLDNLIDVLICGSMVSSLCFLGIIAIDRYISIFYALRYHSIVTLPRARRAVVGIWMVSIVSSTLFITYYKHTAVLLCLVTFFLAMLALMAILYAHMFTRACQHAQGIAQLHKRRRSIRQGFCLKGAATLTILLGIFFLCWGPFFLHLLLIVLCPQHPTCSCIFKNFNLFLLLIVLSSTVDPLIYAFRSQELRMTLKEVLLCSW
T1 sequence (P33033 whole entry): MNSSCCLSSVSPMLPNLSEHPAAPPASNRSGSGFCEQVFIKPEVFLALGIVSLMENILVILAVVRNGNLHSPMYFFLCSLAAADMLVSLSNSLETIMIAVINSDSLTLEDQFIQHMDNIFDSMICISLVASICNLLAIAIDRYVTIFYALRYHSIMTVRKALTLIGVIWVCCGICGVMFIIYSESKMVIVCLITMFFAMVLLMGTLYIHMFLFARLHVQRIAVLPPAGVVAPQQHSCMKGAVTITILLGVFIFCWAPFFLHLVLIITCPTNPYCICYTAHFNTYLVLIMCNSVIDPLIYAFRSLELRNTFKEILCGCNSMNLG
Sequence of human melanocortin-4 receptor (P32245 whole entry): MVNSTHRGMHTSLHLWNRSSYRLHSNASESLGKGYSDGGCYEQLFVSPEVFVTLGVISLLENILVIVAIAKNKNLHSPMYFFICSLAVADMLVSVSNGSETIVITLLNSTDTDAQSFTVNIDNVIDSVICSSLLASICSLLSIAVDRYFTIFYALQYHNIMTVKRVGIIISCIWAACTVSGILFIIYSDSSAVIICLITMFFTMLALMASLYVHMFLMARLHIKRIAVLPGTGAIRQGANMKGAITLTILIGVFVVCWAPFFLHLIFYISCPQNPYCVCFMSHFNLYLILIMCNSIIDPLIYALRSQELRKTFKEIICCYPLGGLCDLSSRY
T4 sequence (P56450 whole entry): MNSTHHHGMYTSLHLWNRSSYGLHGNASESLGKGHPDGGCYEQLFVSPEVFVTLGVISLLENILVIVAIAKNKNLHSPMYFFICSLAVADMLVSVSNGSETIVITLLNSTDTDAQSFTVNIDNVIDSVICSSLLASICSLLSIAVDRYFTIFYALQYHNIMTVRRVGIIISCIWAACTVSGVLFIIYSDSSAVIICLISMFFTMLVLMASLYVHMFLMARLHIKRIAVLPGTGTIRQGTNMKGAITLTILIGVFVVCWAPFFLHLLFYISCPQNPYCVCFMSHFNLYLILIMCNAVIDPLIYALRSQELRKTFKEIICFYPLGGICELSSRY
T3 sequence (P41149 whole entry): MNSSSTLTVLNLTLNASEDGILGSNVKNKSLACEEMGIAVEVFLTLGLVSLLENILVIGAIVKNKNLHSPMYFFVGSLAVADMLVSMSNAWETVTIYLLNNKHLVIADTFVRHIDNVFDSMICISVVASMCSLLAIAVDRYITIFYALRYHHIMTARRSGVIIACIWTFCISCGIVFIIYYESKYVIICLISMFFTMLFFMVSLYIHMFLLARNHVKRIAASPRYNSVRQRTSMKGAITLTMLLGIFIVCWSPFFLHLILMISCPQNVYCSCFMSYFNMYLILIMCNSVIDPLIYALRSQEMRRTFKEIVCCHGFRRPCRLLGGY

| Binder | inverse agonist, % decrease from basal signal [1] [%] | agonist EC50 (cAMP AlphaScreen) [2] [nM] | antagonist pA2 (Schild, agonist NDP-MSH) [2] | antagonist pA2 (Schild, agonist NDP-MSH) [6] | antagonist pA2 (Schild, agonist NDP-MSH) [7] | EC50 (cAMP AlphaScreen, inverse agonist) [9] [nM] | agonist EC50 (cAMP AlphaScreen) [8] [nM] | further results |
| --- | --- | --- | --- | --- | --- | --- | --- | --- |
| PRFFXAFP (head-to-tail cyclic; Abu at 5; DPro at 8) [c[Pro-Arg-Phe-Phe-Abu-Ala-Phe-DPro]] | -15 | > 100000 | < 5.5 | – | – | – | – | agonist EC50 (cAMP AlphaScreen) [3]: > 100000 nM; inverse agonist apparent potency [4]: 160 nM; inverse agonist, % decrease from basal cAMP [4]: -20% |
| cyclo(PRFFNAW[dP]) [c[Pro-Arg-Phe-Phe-Asn-Ala-Trp-DPro]] | – | – | – | – | – | – | – | inverse agonist apparent potency [5]: 150 nM; inverse agonist, % decrease from basal cAMP [5]: -20% |
| cyclo(PRF[hPhe]RAF[dP]) (SMILES C[C@@H]1NC(=O)[C@H](CCCNC(=N)N)NC(=O)[C@H](CCc2ccccc2)NC(=O)[C@H](Cc2ccccc2)NC(=O)[C@H](CCCNC(=N)N)NC(=O)[C@@H]2CCCN2C(=O)[C@H]2CCCN2C(=O)[C@H](Cc2ccccc2)NC1=O) [c[Pro-Arg-Phe-hPhe-Arg-Ala-Phe-DPro]] | – | – | – | 8 | 8.9 | > 100000 | – | % receptor stimulation at 100 µM (cAMP AlphaScreen) [8]: 25% |
| PRFFXAFP (head-to-tail cyclic; Dap at 5; DPro at 8) [c[Pro-Arg-Phe-Phe-Dap-Ala-Phe-DPro]] | -50 | > 100000 | 6.52 | – | – | > 100000 | 1600 | % maximal NDP-MSH response at 100 µM (cAMP AlphaScreen) [3]: 30%; inverse agonist apparent potency [4]: 60 nM; inverse agonist, % decrease from basal cAMP [4]: -15%; partial agonist, % receptor stimulation [8]: 80% |
| cyclo(P[dR]F[dF]NAF[dP]) [c[Pro-DArg-Phe-DPhe-Asn-Ala-Phe-DPro]] | – | – | – | – | – | – | – | % maximal NDP-MSH response at 100 µM (cAMP AlphaScreen) [10]: 35%; agonist EC50 (cAMP AlphaScreen) [11]: 1200 nM |
| PRFFNAXP (head-to-tail cyclic; Cha at 7; DPro at 8) [c[Pro-Arg-Phe-Phe-Asn-Ala-Cha-DPro]] | – | – | – | – | – | – | – | inverse agonist apparent potency [5]: 780 nM; inverse agonist, % decrease from basal cAMP [5]: -20% |
| cyclo(PRFFNAK[dP]) [c[Pro-Arg-Phe-Phe-Asn-Ala-Lys-DPro]] | – | – | – | – | – | – | – | inverse agonist, % change from basal cAMP at 100 µM [5]: -40% |
| PRFFXAFP (head-to-tail cyclic; DDap at 5; DPro at 8) [c[Pro-Arg-Phe-Phe-DDap-Ala-Phe-DPro]] | -30 | > 100000 | 6.7 | – | – | – | – | agonist EC50 (cAMP AlphaScreen) [3]: > 100000 nM; inverse agonist apparent potency [4]: 110 nM; inverse agonist, % decrease from basal cAMP [4]: -10% |
| cyclo(PRF[hPhe][Dap]S[Nle][dP]) (SMILES CCCC[C@@H]1NC(=O)[C@H](CO)NC(=O)[C@H](CN)NC(=O)[C@H](CCc2ccccc2)NC(=O)[C@H](Cc2ccccc2)NC(=O)[C@H](CCCNC(=N)N)NC(=O)[C@@H]2CCCN2C(=O)[C@H]2CCCN2C1=O) [c[Pro-Arg-Phe-hPhe-Dap-Ser-Nle-DPro]] | – | – | – | 6.7 | 9.5 | > 100000 | > 100000 | – |
| cyclo(PRFFAAF[dP]) [c[Pro-Arg-Phe-Phe-Ala-Ala-Phe-DPro]] | -35 | > 100000 | < 5.5 | – | – | – | – | agonist EC50 (cAMP AlphaScreen) [12]: > 100000 nM; antagonist pA2 (Schild, agonist NDP-MSH) [12]: 7.32; agonist EC50 (cAMP AlphaScreen) [3]: > 100000 nM; inverse agonist apparent potency [4]: 250 nM; inverse agonist, % decrease from basal cAMP [4]: -20% |
| cyclo(PRFFSAF[dP]) [c[Pro-Arg-Phe-Phe-Ser-Ala-Phe-DPro]] | -25 | > 100000 | 5.9 | – | – | – | – | agonist EC50 (cAMP AlphaScreen) [12]: > 100000 nM; antagonist pA2 (Schild, agonist NDP-MSH) [12]: 7.7; agonist EC50 (cAMP AlphaScreen) [3]: > 100000 nM; inverse agonist apparent potency [4]: 140 nM; inverse agonist, % decrease from basal cAMP [4]: -25% |
| cyclo(PRFFNAF[dP]) (also: assayed as TFA salt) [c[Pro-Arg-Phe-Phe-Asn-Ala-Phe-DPro]] | -30 | – | – | – | – | – | 2800 | % maximal NDP-MSH response at 100 µM (cAMP AlphaScreen) [3]: 25%; partial agonist, % receptor stimulation [8]: 80% |
| cyclo(PRFFNA[hPhe][dP]) [c[Pro-Arg-Phe-Phe-Asn-Ala-hPhe-DPro]] | – | – | – | – | – | – | – | inverse agonist apparent potency [5]: 290 nM; inverse agonist, % decrease from basal cAMP [5]: -20% |
| cyclo(PRF[hPhe]RA[Nle][dP]) (SMILES CCCC[C@@H]1NC(=O)[C@H](C)NC(=O)[C@H](CCCNC(=N)N)NC(=O)[C@H](CCc2ccccc2)NC(=O)[C@H](Cc2ccccc2)NC(=O)[C@H](CCCNC(=N)N)NC(=O)[C@@H]2CCCN2C(=O)[C@H]2CCCN2C1=O) [c[Pro-Arg-Phe-hPhe-Arg-Ala-Nle-DPro]] | – | – | – | 7.5 | 8.8 | > 100000 | > 100000 | – |
| cyclo(PRFFNAY[dP]) [c[Pro-Arg-Phe-Phe-Asn-Ala-Tyr-DPro]] | – | – | – | – | – | – | – | inverse agonist, % change from basal cAMP at 100 µM [5]: -40% |
| cyclo(PRFFNAL[dP]) [c[Pro-Arg-Phe-Phe-Asn-Ala-Leu-DPro]] | – | – | – | – | – | – | – | inverse agonist, % change from basal cAMP at 100 µM [5]: -35% |
| cyclo(PRF[hPhe]RS[Nle][dP]) (SMILES CCCC[C@@H]1NC(=O)[C@H](CO)NC(=O)[C@H](CCCNC(=N)N)NC(=O)[C@H](CCc2ccccc2)NC(=O)[C@H](Cc2ccccc2)NC(=O)[C@H](CCCNC(=N)N)NC(=O)[C@@H]2CCCN2C(=O)[C@H]2CCCN2C1=O) [c[Pro-Arg-Phe-hPhe-Arg-Ser-Nle-DPro]] | – | – | – | 7.9 | 9.5 | > 100000 | 400 | – |
| cyclo(PRFFNA[Nle][dP]) [c[Pro-Arg-Phe-Phe-Asn-Ala-Nle-DPro]] | – | – | – | – | – | – | – | inverse agonist, % change from basal cAMP at 100 µM [5]: -35%; partial agonist, % receptor stimulation [8]: 50% |
| cyclo(PRFFNSF[dP]) (SMILES N=C(N)NCCC[C@@H]1NC(=O)[C@@H]2CCCN2C(=O)[C@H]2CCCN2C(=O)[C@H](Cc2ccccc2)NC(=O)[C@H](CO)NC(=O)[C@H](CC(N)=O)NC(=O)[C@H](Cc2ccccc2)NC(=O)[C@H](Cc2ccccc2)NC1=O) [c[Pro-Arg-Phe-Phe-Asn-Ser-Phe-DPro]] | – | > 100000 | 6.2 | 6.1 | 8.1 | – | 1200 | agonist EC50 (cAMP AlphaScreen) [12]: > 100000 nM; antagonist pA2 (Schild, agonist NDP-MSH) [12]: 8.2; agonist EC50 (cAMP AlphaScreen) [3]: > 100000 nM; inverse agonist, % change from basal cAMP at 100 µM [4]: -30%; inverse agonist efficacy, % relative to basal [9]: -14% |
| cyclo(PRF[hPhe]RSF[dP]) (SMILES N=C(N)NCCC[C@@H]1NC(=O)[C@H](CCc2ccccc2)NC(=O)[C@H](Cc2ccccc2)NC(=O)[C@H](CCCNC(=N)N)NC(=O)[C@@H]2CCCN2C(=O)[C@H]2CCCN2C(=O)[C@H](Cc2ccccc2)NC(=O)[C@H](CO)NC1=O) [c[Pro-Arg-Phe-hPhe-Arg-Ser-Phe-DPro]] | – | – | – | 7.7 | 8.8 | > 100000 | – | % receptor stimulation at 100 µM (cAMP AlphaScreen) [8]: 30% |
